One may read the Kd as the constant that tells how readily two partners part at equilibrium. What is called koff is a measure of how fast the partners let go of each other. Usually kon stands for the rate constant with which the complex forms. In general, stoichiometry N refers to the number of molecules, sites or subunits per partner or assembly.

Where two headings read alike, the source gives them in different places.

Experiment [1] deals with T1, recombinant mouse Clec4F (CLEC4F/CLECSF13), soluble extracellular domain Ala65-Gly548 (Mus musculus, UniProt P70194).
T1 construct: Clec4F (C-type lectin domain family 4, member F), mouse, soluble extracellular domain Ala65-Gly548; the oligomeric state of the bought protein was not measured here; also called mClec4F; mouse Kupffer cell receptor Clec4F; source: bought: R&D Systems (NS0-derived, mouse myeloma cell line)
The experiment is described as follows: SPR; Biacore T200; 400 RU of recombinant mouse Clec4F coupled to a CM5 chip; nanobodies flown at 30 ul/min at 1-400 nM; 1:1 binding model. To be noted: both partners purified. A general note: In SPR one partner is held on a chip, and binding of the other changes the refractive index at the surface.

In experiment [2] the target is T1, recombinant mouse Clec4F ….
The target of experiment [3] is Nb1.46 (alpaca (Vicugna pacos)). The experiment is described as follows: SDS-PAGE; 10% SDS-PAGE with Coomassie staining of the nanobody preparations after IMAC and dialysis.
For experiment [4], the target named is T1, recombinant mouse Clec4F …. The experiment is described as follows: SPR; Biacore T200; 400 RU of recombinant mouse Clec4F coupled to a CM5 chip; nanobodies flown at 30 ul/min at 1-400 nM; 1:1 binding model. To be noted: both partners purified. This is another data set of the same source.
The target of experiment [5] is T2, recombinant mouse Clec4F (CLEC4F/CLECSF13), soluble extracellular domain Ala65-Gly548 (mouse) (UniProt P70194).
T2 sequence: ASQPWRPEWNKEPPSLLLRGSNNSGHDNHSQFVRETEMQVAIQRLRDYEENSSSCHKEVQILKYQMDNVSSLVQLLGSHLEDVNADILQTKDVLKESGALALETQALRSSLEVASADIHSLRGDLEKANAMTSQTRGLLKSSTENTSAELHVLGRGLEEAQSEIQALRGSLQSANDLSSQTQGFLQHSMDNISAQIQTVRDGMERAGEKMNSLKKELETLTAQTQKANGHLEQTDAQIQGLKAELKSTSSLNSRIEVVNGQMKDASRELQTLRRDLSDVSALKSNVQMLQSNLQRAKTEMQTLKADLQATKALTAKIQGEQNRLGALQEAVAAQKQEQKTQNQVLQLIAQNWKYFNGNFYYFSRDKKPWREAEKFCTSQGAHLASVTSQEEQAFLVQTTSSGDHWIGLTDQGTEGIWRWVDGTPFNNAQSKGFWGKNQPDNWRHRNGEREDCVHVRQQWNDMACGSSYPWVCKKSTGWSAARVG
The experiment is described as above.

B1: Nb2.22 (VHH)
VHH: QVQLVESGGGLVQAGGSLRLSCAASGATFITYGMTWFRQAPGKEREFVAAVTGNGAGTTYLPSVKGRFTISRDNAKNTVYLQMSSLKPEDTAVYYCGGRRWVPATAVDQVAYWGQGTQVTVSS
notes: Labelled with 99mTc through its His tag for the biodistribution test only; also called R3-22; group G2; source: E. coli WK6 periplasm, purified (IMAC Ni-NTA, dialysis; size exclusion chromatography for the later tests); not shown: His6, C-terminal, kept
In the case of B1, in experiment [1], the Kd was determined as 268 pM, the koff was determined as 0.00221 s⁻¹ and the kon was 8.24e+06 M⁻¹ s⁻¹.

B2: Nb 10.63 (VHH)
VHH: QVQLVESGGGLVQAGGSLRLSCAASGRTFSDYNMGWFRQAPGKEREFVATISRSGAGTYYTDSVKGRFTISRDNAKNTVYLQMNNLKPEDSAAYYCAATLRVALSTITVGGYDYWGQGTQVTVSS
Turning to B2, the binding result in experiment [2] is on record as “binds”.

B3: Nb10.66 (VHH)
VHH: DVQLVESGGGLVQAGGSLRLSCAASGRTFSDYNMGWFRQAPGKEREFVATISRSGGGTYYSDSVKGRFTISRDNAKNTVYLQMNNLKPEDSAAYYCAATLRVALSTITVGGYNYWGQGTQVTVSS
notes: also called R2-66; group G10; source: E. coli WK6 periplasm, purified (IMAC Ni-NTA, dialysis)
For B3, in experiment [1], the Kd is 314 pM, the koff came out at 0.00135 s⁻¹ and the kon is 4.28e+06 M⁻¹ s⁻¹.

B4: Nb10.16 (VHH)
VHH: DVQLVESGGGLVEPGGSLRLSCAASGRTFSDYNMGWFRQAPGKEREFVATISRNGAGSYYTDSVKGRFTISRDNAKNTVYLQMNNLKPEDSAAYYCAATLRVALSTITVGGYDYWGQGTQVTVSS
notes: Labelled with 99mTc through its His tag for the biodistribution test only; also called R2-16; group G10; source: E. coli WK6 periplasm, purified (IMAC Ni-NTA, dialysis; size exclusion chromatography for the later tests); not shown: His6, C-terminal, kept
Turning to B4, in experiment [1], the Kd is 524 pM, the koff was found to be 0.000825 s⁻¹ and the kon came out at 1.58e+06 M⁻¹ s⁻¹.

B5: Nb10.17 (VHH)
VHH: QVQLVESGGGLVQAGGSLRLSCAASGRTFDSYNMGWFRQAPGKEREFVATISRSGAGTYYTDSVKGRFTISRDNAKNTMYLQMNNLKPEDSAAYYCAATLRVALSTITVGGYDIWGQGTQVTVSS
notes: also called R3-17; group G10; source: E. coli WK6 periplasm, purified (IMAC Ni-NTA, dialysis)
In the case of B5, in experiment [1], the Kd amounted to 174 pM, the koff amounted to 0.00158 s⁻¹ and the kon turned out to be 9.08e+06 M⁻¹ s⁻¹.

B6: Nb10.21 (VHH)
VHH: QVQLVESGGGLVQAGGSLRLSCAASGRTFSSYNMGWFRQAPGKEREFVATISRNGAGTYYTDSVKGRFTISRDNAKNTVYLQMNNLKPEDSAAYYCAATQRVALSTITVGGYEYWGQGTQVTVSS
notes: also called R2-21; group G10; source: E. coli WK6 periplasm, purified (IMAC Ni-NTA, dialysis)
Turning to B6, in experiment [1], the Kd is 484 pM, the koff was determined as 0.00223 s⁻¹ and the kon stood at 4.62e+06 M⁻¹ s⁻¹.

B7: Nb1.46 (VHH)
VHH: QVQLVESGGGLVQAGGSLRLSCAASGRTFSSYAMGWFRQAPGKERECVAAMDWSTSATYYADSVKGRFTISRDNAKNTVYLQMNSLKPEDTAVYYCAADLDYSDYGPFPGDMDYWGKGTQVTVSS
notes: The preparation held dimers beside monomers (SDS-PAGE); extra cysteine at position 52 (IMGT); also called R2-46; group G1; source: E. coli WK6 periplasm, purified (IMAC Ni-NTA, dialysis); not shown: His6, C-terminal, kept
B7 had a stoichiometry N in experiment [3] of 2. Besides, the binding result in experiment [4] is “binds”.

B8: Nb11.16 (VHH)
VHH: QVQLVESGGGLVQAGGSLRLSCVASGGTFSNYRMAWFRQAPGKEREFVSLITRSGGSTYYADSVKGRFTISRDNAKNTVSLQMNTLKPEDTAVYTCAATPRFDSYSNYIRTNGYDYWGQGTQVTVSS
notes: also called R3-16; group G11; source: E. coli WK6 periplasm, purified (IMAC Ni-NTA, dialysis)
Consider B8, for which, in experiment [1], the Kd was 169 pM, the koff is 0.00392 s⁻¹ and the kon came to 2.32e+07 M⁻¹ s⁻¹.

B9: Nb11.28 (VHH)
VHH: QVQLVESGGGLVQAGASLRLSCAASGGTFSNYRMAWFRQAPGKEREFVSLITRSGGSTYYADSVKGRFTISRDNAQNTVSLQMNTLKPEDTAVYTCAATPRFDSGSYYTRTNGYDYWGQGTQVTVSS
notes: also called R3-28; group G11; source: E. coli WK6 periplasm, purified (IMAC Ni-NTA, dialysis)
Take B9: in experiment [1], the Kd amounted to 1200 pM, the koff amounted to 0.00654 s⁻¹ and the kon came to 5.43e+06 M⁻¹ s⁻¹.

B10: Nb5.10 (VHH)
VHH: QVQLVESGGGLVQPGGSLRLSCAANVSSFRFAAMGWYRQVQGKRRELVATITRDGVSNYVEPMKGRFTISRDNGKNTVYLQMNHLQPEDTAVYYCAAKISPFGGTWTPDYWGQGTQVTVSS
notes: also called R3-10; group G5; source: E. coli WK6 periplasm, purified (IMAC Ni-NTA, dialysis)
With B10, the binding result in experiment [4] was “binds”.

B11: Nb9.15 (VHH)
VHH: QVQLVESGGGLVQPGGSLRLSCAASGFSLASRTIAWFRQAPGKEREGVSCISRSGAFTNNADSVKGRFTISRDNAKNTVYLQMNSLKPEDTADYYCAVTSSWYSTCLRESIYDSWGQGTQVTVSS
notes: also called R3-15; group G9; source: E. coli WK6 periplasm, purified (IMAC Ni-NTA, dialysis)
As to B11, in experiment [1], the Kd is 26700 pM, the koff came to 0.0317 s⁻¹ and the kon was 1.19e+06 M⁻¹ s⁻¹.

B12: Nb 7.24 (VHH)
VHH: QVQLVESGGGLVQPGGSLRLSCAASGFTLDYYAIGWFRQAPGKEREGVSCIASDGGSTKYADSVKGRFTISRDSAKNTVYLQMNSLKPEDTAIYYCAAGRPGYCSGYALKEIYPYRDWGQGTQVTVSS
Regarding B12, the binding result in experiment [2] is “binds”.

B13: Nb13.12 (VHH)
VHH: QVQLVESGGGLVQDEGSLRLSCAASGLIFSNYIVGWFRQTPGKEREFVAAIRWGGTSSYYSDSVKGRFTVSRDNAKNTLYLQMNNLKPEDTAVYYCATGPYYRGDYRVPDNMDYWGKGTQVTVSS
notes: also called R3-12; group G13; source: E. coli WK6 periplasm, purified (IMAC Ni-NTA, dialysis)
B13: in experiment [1], the Kd came to 1110 pM, the koff was 0.0031 s⁻¹ and the kon amounted to 2.79e+06 M⁻¹ s⁻¹.

B14: Nb11.20 (VHH)
VHH: QVQLVESGGGLVQTGGSLRLSCAASGRTVSSYRMGWFRQAPGKEREFVCMITRSGFKTYCNDSVKGRFTISRDVAVNTVNLQMNSLKPEDTADYYCAATERWGTTATMTTANDYDYWGQGTQVTVSS
notes: also called R2-20; group G11; source: E. coli WK6 periplasm, purified (IMAC Ni-NTA, dialysis)
As to B14, in experiment [1], the Kd was 403 pM, the koff turned out to be 0.00139 s⁻¹ and the on-rate constant (kon) was determined as 3.46e+06 M⁻¹ s⁻¹.

B15: Nb 4.39 (VHH)
VHH: DVQLVESGGGLVQPGGSLRLSCAASGSNVDIATISWYRQGTGNQREFVAYITPRGNTLYGASVTGRFTISRDNAKNTVYLQMNSLRFDDTAVYYCNVARLGRNYWGQGTQVTVSS
For B15, the binding result in experiment [2] is listed as “binds”.

B16: Nb6.4 (VHH)
VHH: QVQLVESGGGLVQPGGSLTLSCAASGFTISNYAMKWDRQAPGKGFEWVSTINSDGDNTSYRDSVKGRFTISRDNAKNTLYLQMNSLKPEDTAVYYCSNGGRRGQGTQVTVSS
notes: also called R3-4; group G6; source: E. coli WK6 periplasm, purified (IMAC Ni-NTA, dialysis)
For B16, in experiment [1], the Kd is 2000 pM, the koff is 0.00231 s⁻¹ and the kon was 1.16e+06 M⁻¹ s⁻¹.

B17: Nb6.19 (VHH)
VHH: DVQLVESGGGLVQPGGSLRLSCAASGFTLSTYAMRWVRQAPGKGLEWVSDINSGGDVMSYRDSVKGRFTISRDDAKNTLYLQMNSLKPEDTAVYYCTNGWSRGQGTQVTVSS
notes: also called R2-19; group G6; source: E. coli WK6 periplasm, purified (IMAC Ni-NTA, dialysis)
In the case of B17, in experiment [1], the Kd was found to be 470 pM, the koff came to 0.000612 s⁻¹ and the kon is 1.3e+06 M⁻¹ s⁻¹.

B18: Nb6.3 (VHH)
VHH: QVQLVESGGGLVQPGGSLRLSCAASGFTFSSYAMRWVRQAPGKGLEWVSDINKGGSGTSYRDSVKGRFTISRDDAKNTLYLQMNSLKPEDTAVYYCTNGGSRGQGTQVTVSS
notes: also called R3-3; group G6; source: E. coli WK6 periplasm, purified (IMAC Ni-NTA, dialysis)
Take B18: in experiment [1], the Kd stood at 296 pM, the koff came to 0.000848 s⁻¹ and the kon is 2.87e+06 M⁻¹ s⁻¹.

B19: Nb14.70 (VHH)
VHH: QVQLVESGGGLVQAGDSLSLVCTLPERSRFAVGWFRQASGKEREIVAAISWLGMNEYYGDSVKGRSTISRDNAKNTVRLQMDSLKREDTAVYYCAADYSLDNVRRTPRFWGQGTQVTVSS
As for B19, in experiment [5], the koff amounted to 0.0606 s⁻¹ and the kon was determined as 3.06e+07 M⁻¹ s⁻¹.

B20: Nb12.75 (VHH)
VHH: QVQLVESGGGLVQAGGSLRLSCAASLRTFSNAMGWFRQAPGKEREFVAVITWSGRVTNYSDSVKGRFTISKDNAKNTMYLQMNSLKLEDTAVYFCARESTFATANPKDYAYWGQGTQVTVSS
notes: also called R2-75; group G12; source: E. coli WK6 periplasm, purified (IMAC Ni-NTA, dialysis)
For B20, the binding result in experiment [4] was “binds”.

B21: Nb6.18 (VHH)
VHH: DVQLGESGGGLVQPGGSLRLSCAASGFTFSSYAMRWVRQAPGKALEWVADINSSGAYTNYRDSVTGRFIISRDNVKNTLYLQMDNMKPEDTAVYYCTTGGQRGQGTQVTVSS
notes: also called R3-18; group G6; source: E. coli WK6 periplasm, purified (IMAC Ni-NTA, dialysis)
As for B21, in experiment [1], the Kd was found to be 510 pM, the koff is 0.000756 s⁻¹ and the kon amounted to 1.48e+06 M⁻¹ s⁻¹.

B22: Nb8.37 (VHH)
VHH: QVQLVESGGGLVQPGGSLRLSCAASGLTLDYLRIAWFRQAPGKKRERVSCISITEGSANYADSVKGRFTISRDNAKNTVFLQMNSLKPEDTAVYYCAARRYYCSGTPTDYAYWGQGTQVTVSS
notes: Labelled with 99mTc through its His tag for the biodistribution test only; also called R3-37; group G8; source: E. coli WK6 periplasm, purified (IMAC Ni-NTA, dialysis; size exclusion chromatography for the later tests); not shown: His6, C-terminal, kept
On to B22, for which, in experiment [1], the Kd worked out at 790 pM, the koff turned out to be 0.00124 s⁻¹ and the kon came out at 1.57e+06 M⁻¹ s⁻¹.

Source of the values: article PMC7937711, “Development and Characterization of Nanobodies Targeting the Kupffer Cell” (Frontiers in Immunology, 2021).
